Results reported in PMC3663649 (2013).

How the values were obtained:
[1] = target: T1, H3KC36me3 nucleosomes (recombinant MLA nucleosomes reconstituted on 601 DNA) (Drosophila, UniProt P02299 1-136; P84040 1-103; P84051 1-124; P02283 1-123, H3KC36me3, cysteine at 36 alkylated to a thioether mimic of trimethyl-lysine (H3KC36me3)); assay: EMSA titration 2 (bottom)
[2] = target: T1, H3KC36me3 nucleosomes (recombinant MLA …); assay: EMSA titration 1 (top)

Kd [1]: 600 nM
Kd [2]: 400 nM
B1: GST-PWWP (PSIP1-PWWP domain, residues 3 to 100, GST fusion) (domain or fragment)
chain: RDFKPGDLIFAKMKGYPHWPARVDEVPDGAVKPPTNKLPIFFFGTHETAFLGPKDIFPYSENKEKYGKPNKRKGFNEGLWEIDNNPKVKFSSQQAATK
